The values below are quoted from earlier work in article PMC12493190.

Data set [1] concerns the target phospho-ubiquitin (Homo sapiens) (UniProt P0CG47).
Data set [2] has as its target parkin pUbl Ubl (Homo sapiens) (UniProt O60260).

parkin RING0, sequence (O60260 141-225): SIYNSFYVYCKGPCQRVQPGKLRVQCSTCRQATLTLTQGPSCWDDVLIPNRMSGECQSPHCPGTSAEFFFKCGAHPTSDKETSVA
parkin pUbl Ubl (Homo sapiens), sequence (O60260 1-76): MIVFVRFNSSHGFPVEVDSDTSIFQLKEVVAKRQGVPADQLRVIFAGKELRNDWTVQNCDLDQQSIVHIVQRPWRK

Take parkin RING0 (from UniProt O60260): the Kd is 400 nM in data set [1] and 1000 nM in data set [2].
